Assay results: patent publication US8394929B2, “Nogo receptor-mediated blockade of axonal growth” (Yale University, priority 2000, dated 2013)
Like-named read-outs stand apart in the source and are kept apart here.

Assays:
[1] = system: GST-Nogo-66 inhibition of neurite outgrowth; experiment: Blockade of Nogo-induced inhibition of neurite outgrowth in chick DRG neurons; assay type: cell-based
Description: (§1) For all experiments involving cell culture, the following methods were employed. The culture of embryonic chick E10 and E12 dorsal root ganglion explants and dissociated neurons utilized methods described for E7 dorsal root ganglion cultures (Takahashi et al., (1998) Nature Neurosci. 1, 487-493; Takahashi et al., (1999) Cell 99, 59-69; Goshima et al., (1995) Nature 376, 509-514; Jin & Strittmatter, (1997) J. Neurosci. […]). NGF-differentiated PC12 cells were cultured as described (Strittmatter et al., (1994) J. Neurosci. 14, 2327-2338). Embryonic spinal cord explants (rat E10 or chick E5) were cultured for 7-14 days in the presence of PDGF-AA to induce differentiation of some cells into mature oligodendrocytes (Vartanian et al., (1999) Proc. Natl. Acad. Sci. USA 96, 731-735). The procedure for growth cone collapse assays is identical to that for analysis of Sema3A-induced growth cone collapse (Takahashi et al., (1998) Nature Neurosci. 1, 487-493; Takahashi et al., (1999) Cell 99, 59-69; Goshima et al., (1995) Nature 376, 509-514; Jin & Strittmatter, (1997) J. Neurosci. 17, 6256-6263). The method for analysis of total neurite outgrowth has also been described (Goshima et al., (1995) Nature 376, 509-514; Jin & Strittmatter, (1997) J. Neurosci. 17, 6256-6263; Strittmatter et al., (1994) J. Neurosci. 14, 2327-2338). In outgrowth assays, proteins and peptides were added one hour after plating to minimize any effect on the total number of adherent cells. To test the effect of substrate-bound GST or GST-Nogo, the protein solutions were dried on poly-L-lysine coated glass, washed and then coated with laminin. For E12 cultures, the neuronal identity of cells was verified by staining with anti-neurofilament antibodies (2H3, Develomental Studies Hybridoma Bank) and neurites were traced by observation of rhodamine-phalloidin staining of F-actin in processes.
Peptide 140 was tested for its ability to neutralize neurite outgrowth inhibition caused by the addition of GST fused to residues #1055-1120 of hNogoA (designated Nogo-66 in FIG. 16e). Plastic chamber slides were coated with 100 μg ml^−1 poly-L-lysine, washed, and dried. 3 μl drops of PBS containing GST-hNogoA(residues #1055-1120) were spotted and dried. Slides were then rinsed and coated with 10 μg ml fs24^−1 laminin before addition of dissociated E12 chick DRGs. Peptide 140 was added at the time of cell plating. Cultures were grown for 5-7 h after which neurite outgrowth was assessed.
Although the role of the GPI anchor may be to regulate NgR cellular compartmentalization, another possible role for the GPI linkage is to provide a NgR cleavage site. Cleaving NgR could serve to affect hNogo-A (1055-1120) signaling by rendering a neuron insensitive to hNogo-A (1055-1120) and by releasing soluble NgR that could then act on adjacent cells to modulate hNogo-A (1055-1120) signaling. To determine if soluble mNgR modulates hNogo-A (1055-1120)-dependent inhibition, a soluble mNgR was generated by inserting a truncated cDNA encoding mNgR residues 1-348 in frame with a myc-His carboxy tag into pcDNA3.1. The resulting plasmid expressing mNgREcto was transfected into HEK293T cells, and conditioned media containing mNgREcto protein was collected. To test the effect of mNgREcto on Nogo signaling, E13 dissociated DRGs were plated in the presence of hNogo-A (1055-1120) or myelin. The inhibitors were presented in either soluble or substrate-bound forms. For neurite outgrowth assays on hNogo-A (1055-1120) or myelin substrates, Permanox chamber slides were coated with 100μ, fs24 g ml^−1 poly-L-Lysine, washed, and then 3-μl drops of phosphate-buffered saline (hereinafter “PBS”) containing 0, 10, 50, or 150 ng of GST-hNogo-A (1055-1120) or myelin were spotted and dried. GST-hNogo-A (1055-1120) and myelin were prepared as previously described (GrandPre et al., supra; Fournier et al., J. Cell Biol. 149:411-421, 2000). After three PBS washes, slides were coated with 10 μg ml^−1 laminin. […]

[2] = system: chick dorsal root ganglion neurons; experiment: Neurite outgrowth assay in chick DRG neurons; assay type: cell-based
Description: as §1
For neurite outgrowth assays, plastic chamber slides were coated with 100 μg ml^−1 poly-L-lysine, washed, and dried. 3 μl drops of PBS containing GST-Nogo-66 were spotted and dried. Slides were then rinsed and coated with 10 μg ml fs24^−1 laminin before addition of dissociated E12 chick DRGs. AP-fusion proteins were added at the time of cell plating. Cultures were grown for 5-7 h after which neurite outgrowth was assessed.

[3] = system: CNS myelin induced growth cone collapse; experiment: Blockade of CNS myelin induced growth cone collapse in chick DRG cultures; assay type: cell-based
Description: In the growth cone collapse assay, the response to Nogo was measured in the presence of various potential antagonistic peptides. […] This blockade supports the hypothesis that Nogo is a primary inhibitory component of CNS myelin.
To determine the antagonistic activity of Peptide 140 against CNS myelin, the above synthetic peptide was added approximately 10 min before application of CNS myelin. 30 min later, cultures were fixed and growth cone collapse was assessed following staining with rhodamine-phalloidin. For neurite outgrowth assays, plastic chamber slide were coated with 100 μg ml^−1 poly-L-lysine, washed, and dried. 3 μl drops of PBS containing CNS myelin were spotted and dried. Slides were then rinsed and coated with 10 μg ml fs24^−1 laminin before addition of dissociated E12 chick DRGs. Peptide 140, or the scrambled version of Peptide 140, was added at the time of cell plating. Cultures were grown for 5-7 h after which neurite outgrowth was assessed.

mouse NgR = target: T1, mouse NgR (Mus musculus, UniProt Q99PI8); experiment: AP-fusion protein binding to COS-7 cells expressing mouse NgR
T1 construct: expressed in transfected cells; host or cells: COS-7
T1 sequence (Q99PI8 27-473): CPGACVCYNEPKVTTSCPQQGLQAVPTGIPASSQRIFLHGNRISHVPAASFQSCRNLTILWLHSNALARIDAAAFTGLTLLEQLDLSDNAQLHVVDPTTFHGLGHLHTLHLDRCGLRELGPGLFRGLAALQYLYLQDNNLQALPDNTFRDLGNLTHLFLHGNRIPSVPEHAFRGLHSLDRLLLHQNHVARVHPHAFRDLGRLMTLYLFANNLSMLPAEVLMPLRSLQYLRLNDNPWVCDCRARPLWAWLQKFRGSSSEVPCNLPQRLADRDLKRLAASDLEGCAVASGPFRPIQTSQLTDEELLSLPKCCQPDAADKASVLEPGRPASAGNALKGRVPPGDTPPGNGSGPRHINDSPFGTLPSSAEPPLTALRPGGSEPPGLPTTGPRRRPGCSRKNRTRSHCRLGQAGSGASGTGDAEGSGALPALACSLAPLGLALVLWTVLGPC

[4] = soluble protein or peptide added to culture

## Pep2-41: 2-41 fragment of the 66 amino acid region of Nogo, acetylated and amidated at the termini (Ac-RIYKGVIQAIQKSDEGHPFRAYLESEVAISEELVQKYSNS-NH2)
[1]
  blockade of Nogo-induced neurite outgrowth inhibition (in words): can reverse the inhibition of neurite outgrowth
[1]; listed as 2-41 fragment
  blockade of Nogo-induced neurite outgrowth inhibition (in words): blocks

## Peptide 140: synthetic peptide of amino acids #1055-1094 of the human NogoA protein, acetylated and amidated at the termini (Ac-RIYKGVIQAIQKSDEGHPFRAYLESEVAISEELVQKYSNS-NH2; UniProt Q9NQC3 1055-1094, looked up, fragment)
[1]
  blockade of Nogo-induced neurite outgrowth inhibition (in words): extensive outgrowth is observed
[2]; [4]
  neurite/axon outgrowth (in words): no observable effect on neurite outgrowth
[3]; high doses / higher concentrations of CNS myelin
  blockade of CNS myelin induced growth cone collapse (in words): had no effect on inhibitory activity
[3]; low dose / lowest concentrations of CNS myelin
  blockade of CNS myelin induced growth cone collapse (in words): reduces myelin induced growth cone collapse to control levels

B1: NgR-ecto: secreted fragment of amino acid residues 1-348 of the murine NgR, in HEK293T conditioned medium (protein)
chain: CPGACVCYNEPKVTTSCPQQGLQAVPTGIPASSQRIFLHGNRISHVPAASFQSCRNLTILWLHSNALARIDAAAFTGLTLLEQLDLSDNAQLHVVDPTTFHGLGHLHTLHLDRCGLRELGPGLFRGLAALQYLYLQDNNLQALPDNTFRDLGNLTHLFLHGNRIPSVPEHAFRGLHSLDRLLLHQNHVARVHPHAFRDLGRLMTLYLFANNLSMLPAEVLMPLRSLQYLRLNDNPWVCDCRARPLWAWLQKFRGSSSEVPCNLPQRLADRDLKRLAASDLEGCAVASGPFRPIQTSQLTDEELLSLPKCCQPDAADKASVLE
modifications: left off: small tags and cut ends
notes: secreted fragment of amino acid residues 1-348 of the murine NgR, in HEK293T conditioned medium
[1]
  blockade of Nogo-induced neurite outgrowth inhibition (in words): blocks Nogo-66-induced inhibition of neurite outgrowth
[1]; listed as NgREcto
  blockade of Nogo-induced neurite outgrowth inhibition (in words): partially reversed
Mouse NgR; 0.5 nM AP-Nogo-66, NgR-ecto conditioned medium, COS-7 cells expressing full length NgR
  reduction of binding of AP-Nogo-66: 80%

B2: GST-Nogo: GST fusion protein of the 66 amino acid lumenal-extracellular fragment of Nogo-A, expressed in E. coli (protein)
chain: RIYKGVIQAIQKSDEGHPFRAYLESEVAISEELVQKYSNSALGHVNCTIKELRRLFLVDDLVDSLK
modifications: also: GST fusion protein
notes: GST fusion protein of the 66 amino acid lumenal-extracellular fragment of Nogo-A, expressed in E. coli
Mouse NgR
  displacement of AP-Nogo (in words): displaces AP-Nogo
[2]; [4]
  neurite/axon outgrowth (in words): blocked
[2]; soluble protein or peptide added to culture, listed as Nogo-66
  neurite/axon outgrowth (in words): nearly abolishes axonal extension
[2]; substrate-bound / coated surfaces
  neurite/axon outgrowth (in words): reduced to undetectable levels
[2]; substrate-bound / coated surfaces, listed as GST-hNogoA (residues #1055-1120)
  neurite/axon outgrowth (in words): dramatically reduces growth
